Laboratory results taken from US20150344570A1 (published 2015).

T1: FcγRIIb extracellular domain with C-terminal His tag (human, UniProt P31994 43-217)
T1 construct: extracellular domain; also called FcgRIIb; 2b; not shown: His tag at the C terminus
T1 sequence (looked up): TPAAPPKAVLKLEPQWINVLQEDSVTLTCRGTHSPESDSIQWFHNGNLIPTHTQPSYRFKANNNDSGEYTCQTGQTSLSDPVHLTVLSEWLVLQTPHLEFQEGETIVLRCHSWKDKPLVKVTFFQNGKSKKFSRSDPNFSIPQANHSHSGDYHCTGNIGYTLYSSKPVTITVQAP

B1: GpH7-B3 variant K326_03V/GpL16-k0 (antibody, human IgG1, kappa)
heavy: not shown
light: DIVMTQSPLSLPVTPGEPASISCQASESLVHSNRNTYLHWYLQKPGQSPQLLIYKVSNRFSGVPDRFSGSGSGTDFTLKISRVEAEDVGVYYCSQNTHVPPTFGQGTKVEIERTVAAPSVFIFPPSDEQLKSGTASVVCLLNNFYPREAKVQWKVDNALQSGNSQESVTEQDSKDSTYSLSSTLTLSKADYEKHKVYACEVTHQGLSSPVTKSFNRGEC
notes: also called Ho Ab K326_03V
B2: GpH7-A5/GpH7-B3 variant K326_07I/GpL16-k0 (antibody, human IgG1, kappa)
heavy 1: not shown
heavy 2: not shown
light: B1 light
notes: also called He Ab K326_07I
B3: GpH7-B3 variant K326_10E/GpL16-k0 (antibody, human IgG1, kappa)
heavy: not shown
light: B1 light
notes: also called Ho Ab K326_10E
B4: GpH7-B3 variant P238_04F/GpL16-k0 (antibody, human IgG1, kappa)
heavy: not shown
light: B1 light
notes: also called Ho Ab P238_04F
B5: GpH7-B3 variant L235_20W/GpL16-k0 (antibody, human IgG1, kappa)
heavy: not shown
light: B1 light
notes: also called Ho Ab L235_20W
B6: GpH7-A5/GpH7-B3 variant A330_01G/GpL16-k0 (antibody, human IgG1, kappa)
heavy 1: not shown
heavy 2: not shown
light: B1 light
notes: also called He Ab A330_01G
B7: GpH7-B3 variant K334_05P/GpL16-k0 (antibody, human IgG1, kappa)
heavy: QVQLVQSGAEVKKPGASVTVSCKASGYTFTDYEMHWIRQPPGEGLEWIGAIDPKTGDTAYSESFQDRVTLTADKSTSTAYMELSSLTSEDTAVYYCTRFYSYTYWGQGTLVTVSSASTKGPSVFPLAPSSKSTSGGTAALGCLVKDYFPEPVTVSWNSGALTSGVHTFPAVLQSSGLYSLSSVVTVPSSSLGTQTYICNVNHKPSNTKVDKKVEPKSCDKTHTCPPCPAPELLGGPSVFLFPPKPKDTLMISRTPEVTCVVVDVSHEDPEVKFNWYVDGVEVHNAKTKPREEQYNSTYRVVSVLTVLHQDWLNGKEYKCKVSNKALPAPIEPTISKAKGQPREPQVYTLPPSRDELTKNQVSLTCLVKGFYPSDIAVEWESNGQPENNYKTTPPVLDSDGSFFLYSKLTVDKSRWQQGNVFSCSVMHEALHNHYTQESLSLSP
light: B1 light
notes: also called Ho Ab K334_05P
B8: GpH7-A5/GpH7-B3 variant H268_01G/GpL16-k0 (antibody, human IgG1, kappa)
heavy 1: not shown
heavy 2: not shown
light: B1 light
notes: also called He Ab H268_01G
B9: GpH7-A5/GpH7-B3 variant G237_20W/GpL16-k0 (antibody, human IgG1, kappa)
heavy 1: not shown
heavy 2: not shown
light: B1 light
notes: also called He Ab G237_20W
B10: GpH7-B3 variant T335_15Y/GpL16-k0 (antibody, human IgG1, kappa)
heavy: not shown
light: B1 light
notes: also called Ho Ab T335_15Y
B11: GpH7-B3 variant S324_06M/GpL16-k0 (antibody, human IgG1, kappa)
heavy: not shown
light: B1 light
notes: also called Ho Ab S324_06M
B12: GpH7-B3 variant K334_14T/GpL16-k0 (antibody, human IgG1, kappa)
heavy: not shown
light: B1 light
notes: also called Ho Ab K334_14T
B13: GpH7-B3 variant V266_06M/GpL16-k0 (antibody, human IgG1, kappa)
heavy: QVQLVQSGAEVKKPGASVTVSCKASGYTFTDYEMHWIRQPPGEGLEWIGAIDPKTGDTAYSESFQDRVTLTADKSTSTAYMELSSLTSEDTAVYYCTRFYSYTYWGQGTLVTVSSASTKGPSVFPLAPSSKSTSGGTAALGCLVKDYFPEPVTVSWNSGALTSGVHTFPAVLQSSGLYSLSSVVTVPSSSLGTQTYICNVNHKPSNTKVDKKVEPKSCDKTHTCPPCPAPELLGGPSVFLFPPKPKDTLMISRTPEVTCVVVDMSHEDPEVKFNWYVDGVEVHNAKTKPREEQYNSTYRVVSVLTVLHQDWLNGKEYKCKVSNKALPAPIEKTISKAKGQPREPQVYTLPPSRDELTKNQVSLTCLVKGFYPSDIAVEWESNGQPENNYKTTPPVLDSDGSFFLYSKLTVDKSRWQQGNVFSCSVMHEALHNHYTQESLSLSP
light: B1 light
notes: also called Ho Ab V266_06M
B14: GpH7-A5/GpH7-B3 variant A327_09D/GpL16-k0 (antibody, human IgG1, kappa)
heavy 1: not shown
heavy 2: not shown
light: B1 light
notes: also called He Ab A327_09D
B15: GpH7-B3 variant K326_04F/GpL16-k0 (antibody, human IgG1, kappa)
heavy: not shown
light: B1 light
notes: also called Ho Ab K326_04F
B16: GpH7-B3 variant S267_19Q/GpL16-k0 (antibody, human IgG1, kappa)
heavy: not shown
light: B1 light
notes: also called Ho Ab S267_19Q
B17: GpH7-B3 variant L328_13S/GpL16-k0 (antibody, human IgG1, kappa)
heavy: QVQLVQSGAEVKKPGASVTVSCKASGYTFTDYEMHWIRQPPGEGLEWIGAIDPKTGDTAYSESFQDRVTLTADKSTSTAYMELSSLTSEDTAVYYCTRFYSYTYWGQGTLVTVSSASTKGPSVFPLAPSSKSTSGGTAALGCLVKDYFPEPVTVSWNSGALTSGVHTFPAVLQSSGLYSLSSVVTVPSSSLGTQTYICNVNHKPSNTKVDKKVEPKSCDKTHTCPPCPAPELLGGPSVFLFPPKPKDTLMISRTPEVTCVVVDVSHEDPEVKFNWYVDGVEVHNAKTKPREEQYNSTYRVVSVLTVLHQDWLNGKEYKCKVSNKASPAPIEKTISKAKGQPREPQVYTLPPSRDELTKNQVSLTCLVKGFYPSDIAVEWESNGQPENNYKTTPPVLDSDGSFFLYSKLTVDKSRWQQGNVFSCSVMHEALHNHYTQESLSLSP
light: B1 light
notes: also called Ho Ab L328_13S
B18: GpH7-B3 variant K334_03V/GpL16-k0 (antibody, human IgG1, kappa)
heavy: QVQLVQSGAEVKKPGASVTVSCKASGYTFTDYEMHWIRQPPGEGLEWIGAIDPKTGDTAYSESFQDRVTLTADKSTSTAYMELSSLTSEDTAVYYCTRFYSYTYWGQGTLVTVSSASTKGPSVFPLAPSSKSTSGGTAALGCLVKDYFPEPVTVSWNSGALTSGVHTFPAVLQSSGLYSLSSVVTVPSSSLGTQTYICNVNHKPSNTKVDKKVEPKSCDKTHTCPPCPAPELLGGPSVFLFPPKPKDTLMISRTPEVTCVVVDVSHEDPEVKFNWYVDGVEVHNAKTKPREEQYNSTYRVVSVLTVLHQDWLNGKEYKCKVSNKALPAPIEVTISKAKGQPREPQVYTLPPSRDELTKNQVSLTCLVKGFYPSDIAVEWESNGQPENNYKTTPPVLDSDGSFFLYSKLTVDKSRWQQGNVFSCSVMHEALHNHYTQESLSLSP
light: B1 light
notes: also called Ho Ab K334_03V
B19: GpH7-B3 variant P238_15Y/GpL16-k0 (antibody, human IgG1, kappa)
heavy: not shown
light: B1 light
notes: also called Ho Ab P238_15Y
B20: GpH7-B3 variant K334_13S/GpL16-k0 (antibody, human IgG1, kappa)
heavy: not shown
light: B1 light
notes: also called Ho Ab K334_13S
B21: GpH7-B3 variant P331_20W/GpL16-k0 (antibody, human IgG1, kappa)
heavy: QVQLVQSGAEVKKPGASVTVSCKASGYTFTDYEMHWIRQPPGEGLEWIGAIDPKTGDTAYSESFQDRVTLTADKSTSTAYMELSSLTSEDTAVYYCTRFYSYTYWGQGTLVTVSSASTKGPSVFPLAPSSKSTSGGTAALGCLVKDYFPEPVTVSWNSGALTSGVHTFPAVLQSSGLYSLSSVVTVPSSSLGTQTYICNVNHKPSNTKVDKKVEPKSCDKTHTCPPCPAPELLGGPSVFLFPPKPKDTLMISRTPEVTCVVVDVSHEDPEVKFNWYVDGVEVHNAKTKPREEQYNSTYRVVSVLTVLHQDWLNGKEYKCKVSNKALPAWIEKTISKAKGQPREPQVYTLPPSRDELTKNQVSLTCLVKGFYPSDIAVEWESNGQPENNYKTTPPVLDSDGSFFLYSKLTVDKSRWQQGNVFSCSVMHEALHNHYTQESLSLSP
light: B1 light
notes: also called Ho Ab P331_20W
B22: GpH7-B3 variant K326_08L/GpL16-k0 (antibody, human IgG1, kappa)
heavy: not shown
light: B1 light
notes: also called Ho Ab K326_08L
B23: GpH7-B3 variant T335_10E/GpL16-k0 (antibody, human IgG1, kappa)
heavy: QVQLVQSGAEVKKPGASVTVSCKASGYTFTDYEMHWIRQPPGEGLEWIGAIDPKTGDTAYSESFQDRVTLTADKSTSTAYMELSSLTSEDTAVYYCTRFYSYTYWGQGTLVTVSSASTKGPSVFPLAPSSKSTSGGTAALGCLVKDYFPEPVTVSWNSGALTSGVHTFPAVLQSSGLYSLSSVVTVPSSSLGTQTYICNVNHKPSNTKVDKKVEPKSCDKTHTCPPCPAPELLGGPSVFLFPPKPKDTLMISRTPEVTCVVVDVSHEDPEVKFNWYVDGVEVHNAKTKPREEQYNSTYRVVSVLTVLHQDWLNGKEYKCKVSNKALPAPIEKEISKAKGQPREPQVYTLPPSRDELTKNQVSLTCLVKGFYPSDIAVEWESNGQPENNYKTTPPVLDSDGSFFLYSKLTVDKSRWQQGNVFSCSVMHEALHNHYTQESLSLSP
light: B1 light
notes: also called Ho Ab T335_10E
B24: GpH7-B3 variant K326_16H/GpL16-k0 (antibody, human IgG1, kappa)
heavy: not shown
light: B1 light
notes: also called Ho Ab K326_16H
B25: GpH7-A5/GpH7-B3 variant G236_10E/GpL16-k0 (antibody, human IgG1, kappa)
heavy 1: not shown
heavy 2: not shown
light: B1 light
notes: also called He Ab G236_10E
B26: GpH7-A5/GpH7-B3 variant H268_09D/GpL16-k0 (antibody, human IgG1, kappa)
heavy 1: not shown
heavy 2: not shown
light: B1 light
notes: also called He Ab H268_09D
B27: GpH7-B3 variant K326_14T/GpL16-k0 (antibody, human IgG1, kappa)
heavy: not shown
light: B1 light
notes: also called Ho Ab K326_14T
B28: GpH7-B3 variant K334_08L/GpL16-k0 (antibody, human IgG1, kappa)
heavy: not shown
light: B1 light
notes: also called Ho Ab K334_08L
B29: GpH7-A5/GpH7-B3 variant H268_10E/GpL16-k0 (antibody, human IgG1, kappa)
heavy 1: not shown
heavy 2: not shown
light: B1 light
notes: also called He Ab H268_10E
B30: GpH7-B3 variant K334_07I/GpL16-k0 (antibody, human IgG1, kappa)
heavy: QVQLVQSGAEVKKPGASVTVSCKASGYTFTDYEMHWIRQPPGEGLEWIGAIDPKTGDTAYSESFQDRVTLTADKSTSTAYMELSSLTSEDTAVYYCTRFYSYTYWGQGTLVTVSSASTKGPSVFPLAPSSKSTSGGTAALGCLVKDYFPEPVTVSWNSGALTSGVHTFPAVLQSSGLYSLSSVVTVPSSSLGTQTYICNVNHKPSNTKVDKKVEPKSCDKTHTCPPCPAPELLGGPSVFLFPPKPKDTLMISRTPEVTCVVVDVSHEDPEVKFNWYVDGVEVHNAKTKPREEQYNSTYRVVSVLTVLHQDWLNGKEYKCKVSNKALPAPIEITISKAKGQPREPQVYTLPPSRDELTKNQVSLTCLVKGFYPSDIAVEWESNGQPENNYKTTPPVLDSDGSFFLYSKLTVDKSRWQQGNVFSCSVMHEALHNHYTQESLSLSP
light: B1 light
notes: also called Ho Ab K334_07I
B31: GpH7-B3 variant K334_04F/GpL16-k0 (antibody, human IgG1, kappa)
heavy: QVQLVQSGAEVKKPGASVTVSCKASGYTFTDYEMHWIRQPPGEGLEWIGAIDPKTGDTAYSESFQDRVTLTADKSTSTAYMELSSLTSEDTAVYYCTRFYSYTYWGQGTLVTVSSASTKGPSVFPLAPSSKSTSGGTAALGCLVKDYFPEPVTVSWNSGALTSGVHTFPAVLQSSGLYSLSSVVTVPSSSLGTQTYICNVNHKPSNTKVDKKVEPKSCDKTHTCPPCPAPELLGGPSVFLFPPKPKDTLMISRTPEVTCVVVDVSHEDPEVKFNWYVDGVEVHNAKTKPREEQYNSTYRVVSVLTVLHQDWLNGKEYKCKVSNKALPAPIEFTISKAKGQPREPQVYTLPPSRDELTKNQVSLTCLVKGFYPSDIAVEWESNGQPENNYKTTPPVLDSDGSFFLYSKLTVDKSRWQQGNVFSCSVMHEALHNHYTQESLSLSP
light: B1 light
notes: also called Ho Ab K334_04F
B32: GpH7-B3 variant K326_06M/GpL16-k0 (antibody, human IgG1, kappa)
heavy: not shown
light: B1 light
notes: also called Ho Ab K326_06M
B33: GpH7-B3 variant P331_15Y/GpL16-k0 (antibody, human IgG1, kappa)
heavy: not shown
light: B1 light
notes: also called Ho Ab P331_15Y
B34: GpH7-B3 variant K326_09D/GpL16-k0 (antibody, human IgG1, kappa)
heavy: not shown
light: B1 light
notes: also called Ho Ab K326_09D
B35: GpH7-B3 variant K326_19Q/GpL16-k0 (antibody, human IgG1, kappa)
heavy: not shown
light: B1 light
notes: also called Ho Ab K326_19Q
B36: GpH7-B3 variant P238_09D/GpL16-k0 (antibody, human IgG1, kappa)
heavy: not shown
light: B1 light
notes: also called Ho Ab P238_09D
B37: GpH7-B3 variant Y296_20W/GpL16-k0 (antibody, human IgG1, kappa)
heavy: not shown
light: B1 light
notes: also called Ho Ab Y296_20W
B38: GpH7-B3 variant K334_10E/GpL16-k0 (antibody, human IgG1, kappa)
heavy: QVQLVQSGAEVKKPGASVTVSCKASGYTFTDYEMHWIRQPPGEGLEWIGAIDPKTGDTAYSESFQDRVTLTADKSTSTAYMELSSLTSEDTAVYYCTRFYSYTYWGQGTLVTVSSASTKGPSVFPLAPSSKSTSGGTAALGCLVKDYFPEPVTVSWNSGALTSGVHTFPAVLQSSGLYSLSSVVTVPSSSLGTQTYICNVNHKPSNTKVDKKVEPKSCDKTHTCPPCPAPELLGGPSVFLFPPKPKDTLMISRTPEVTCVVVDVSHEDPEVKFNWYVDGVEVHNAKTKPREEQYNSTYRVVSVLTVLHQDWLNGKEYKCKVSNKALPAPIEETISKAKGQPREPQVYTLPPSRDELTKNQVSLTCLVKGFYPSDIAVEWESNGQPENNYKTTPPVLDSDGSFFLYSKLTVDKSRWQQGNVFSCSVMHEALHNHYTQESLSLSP
light: B1 light
notes: also called Ho Ab K334_10E
B39: GpH7-A5/GpH7-B3 variant G237_04F/GpL16-k0 (antibody, human IgG1, kappa)
heavy 1: not shown
heavy 2: not shown
light: B1 light
notes: also called He Ab G237_04F
B40: GpH7-B3 variant S337_16H/GpL16-k0 (antibody, human IgG1, kappa)
heavy: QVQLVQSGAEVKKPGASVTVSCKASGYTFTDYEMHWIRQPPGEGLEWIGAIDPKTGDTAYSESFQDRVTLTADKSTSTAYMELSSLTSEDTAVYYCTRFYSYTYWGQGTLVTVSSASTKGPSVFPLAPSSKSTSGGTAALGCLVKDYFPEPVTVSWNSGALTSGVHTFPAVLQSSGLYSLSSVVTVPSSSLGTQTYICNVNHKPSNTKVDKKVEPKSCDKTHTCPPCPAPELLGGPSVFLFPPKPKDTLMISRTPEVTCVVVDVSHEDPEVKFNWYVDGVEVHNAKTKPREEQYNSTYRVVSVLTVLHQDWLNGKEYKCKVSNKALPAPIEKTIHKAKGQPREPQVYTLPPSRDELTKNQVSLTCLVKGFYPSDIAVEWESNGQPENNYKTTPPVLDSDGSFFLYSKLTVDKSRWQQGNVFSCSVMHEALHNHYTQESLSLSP
light: B1 light
notes: also called Ho Ab S337_16H
B41: GpH7-B3 variant S239_10E/GpL16-k0 (antibody, human IgG1, kappa)
heavy: not shown
light: B1 light
notes: also called Ho Ab S239_10E
B42: GpH7-B3 variant K326_20W/GpL16-k0 (antibody, human IgG1, kappa)
heavy: not shown
light: B1 light
notes: also called Ho Ab K326_20W
B43: GpH7-A5/GpH7-B3 variant G236_09D/GpL16-k0 (antibody, human IgG1, kappa)
heavy 1: not shown
heavy 2: not shown
light: B1 light
notes: also called He Ab G236_09D
B44: GpH7-B3 variant K334_02A/GpL16-k0 (antibody, human IgG1, kappa)
heavy: not shown
light: B1 light
notes: also called Ho Ab K334_02A
B45: GpH7-B3 variant S239_03V/GpL16-k0 (antibody, human IgG1, kappa)
heavy: not shown
light: B1 light
notes: also called Ho Ab S239_03V
B46: GpH7-B3 variant P331_16H/GpL16-k0 (antibody, human IgG1, kappa)
heavy: not shown
light: B1 light
notes: also called Ho Ab P331_16H
B47: GpH7-B3 variant K326_15Y/GpL16-k0 (antibody, human IgG1, kappa)
heavy: not shown
light: B1 light
notes: also called Ho Ab K326_15Y
B48: GpH7-B3 variant L328_02A/GpL16-k0 (antibody, human IgG1, kappa)
heavy: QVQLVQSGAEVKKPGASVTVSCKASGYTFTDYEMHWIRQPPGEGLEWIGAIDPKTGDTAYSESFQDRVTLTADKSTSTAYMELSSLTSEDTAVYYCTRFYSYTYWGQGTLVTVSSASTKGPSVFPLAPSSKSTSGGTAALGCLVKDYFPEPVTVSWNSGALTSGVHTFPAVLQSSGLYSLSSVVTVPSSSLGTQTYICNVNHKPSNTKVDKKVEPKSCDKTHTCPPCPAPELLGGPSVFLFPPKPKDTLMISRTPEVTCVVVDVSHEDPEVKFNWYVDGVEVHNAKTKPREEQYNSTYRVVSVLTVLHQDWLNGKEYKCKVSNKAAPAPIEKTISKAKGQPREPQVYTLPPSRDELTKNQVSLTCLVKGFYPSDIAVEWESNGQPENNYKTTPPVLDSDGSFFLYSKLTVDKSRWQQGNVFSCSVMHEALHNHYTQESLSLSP
light: B1 light
notes: also called Ho Ab L328_02A
B49: GpH7-A5/GpH7-B3 variant A327_10E/GpL16-k0 (antibody, human IgG1, kappa)
heavy 1: not shown
heavy 2: not shown
light: B1 light
notes: also called He Ab A327_10E
B50: GpH7-B3 variant T335_07I/GpL16-k0 (antibody, human IgG1, kappa)
heavy: not shown
light: B1 light
notes: also called Ho Ab T335_07I
B51: GpH7-B3 variant S267_06M/GpL16-k0 (antibody, human IgG1, kappa)
heavy: not shown
light: B1 light
notes: also called Ho Ab S267_06M

Columns and labels:
[1] = molecular target: T1, FcγRIIb extracellular domain with …; assay: SPR, relative binding, HoCon Ab = 100
Description: (§1) Analysis of interaction between objective antibody and the FcγR was carried out using Biacore T100 (GE Healthcare). HBS-EP+ (GE Healthcare) was used as the running buffer, and the measurement temperature was set to 25° C. Chips produced by immobilizing the antigen peptide by the amine coupling method to a Series S Sencor Chip CM5 (GE Healthcare), or alternatively, chips produced by allowing preliminarily biotinylated antigen peptides to interact with and immobilize onto a Series S Sensor Chip SA (certified) (GE Healthcare) were used. Antibodies of interest were captured onto an antigen peptide-immobilized chip, and allowed to interact to each FcγR diluted with running buffer. To regenerate and repeatedly use the chip, the antibodies captured on the chip were washed off by reacting 10 mM glycine-HCl, pH 1.5.

[2] = molecular target: T1, FcγRIIb extracellular domain with …; assay: SPR, relative binding, HeCon Ab = 100
Description: as §1

| Binder | Ho/Con_2b [1] | He/Con_2b [2] |
| --- | --- | --- |
| B1 | 184 % of control | – |
| B2 | – | 199 % of control |
| B3 | 237 % of control | – |
| B4 | 209 % of control | – |
| B5 | 116 % of control | – |
| B6 | – | 104 % of control |
| B7 | 112 % of control | – |
| B8 | – | 144 % of control |
| B9 | – | 193 % of control |
| B10 | 104 % of control | – |
| B11 | 104 % of control | – |
| B12 | 138 % of control | – |
| B13 | 231 % of control | – |
| B14 | – | 172 % of control |
| B15 | 160 % of control | – |
| B16 | 185 % of control | – |
| B17 | 147 % of control | – |
| B18 | 145 % of control | – |
| B19 | 114 % of control | – |
| B20 | 117 % of control | – |
| B21 | 111 % of control | – |
| B22 | 168 % of control | – |
| B23 | 108 % of control | – |
| B24 | 131 % of control | – |
| B25 | – | 110 % of control |
| B26 | – | 239 % of control |

| Binder | Ho/Con_2b [1] | He/Con_2b [2] |
| --- | --- | --- |
| B27 | 177 % of control | – |
| B28 | 114 % of control | – |
| B29 | – | 230 % of control |
| B30 | 137 % of control | – |
| B31 | 115 % of control | – |
| B32 | 193 % of control | – |
| B33 | 111 % of control | – |
| B34 | 240 % of control | – |
| B35 | 163 % of control | – |
| B36 | 207 % of control | – |
| B37 | 103 % of control | – |
| B38 | 129 % of control | – |
| B39 | – | 149 % of control |
| B40 | 103 % of control | – |
| B41 | 175 % of control | – |
| B42 | 132 % of control | – |
| B43 | – | 167 % of control |
| B44 | 110 % of control | – |
| B45 | 108 % of control | – |
| B46 | 100 % of control | – |
| B47 | 162 % of control | – |
| B48 | 117 % of control | – |
| B49 | – | 140 % of control |
| B50 | 104 % of control | – |
| B51 | 187 % of control | – |
